# T1: fHbp m002416 (Neisseria meningitidis, fHbp v3.28/v1.1 …, point mutant)
# T1 construct: also called fHbp 2,416; Round 2 best mutant
# T1 chain: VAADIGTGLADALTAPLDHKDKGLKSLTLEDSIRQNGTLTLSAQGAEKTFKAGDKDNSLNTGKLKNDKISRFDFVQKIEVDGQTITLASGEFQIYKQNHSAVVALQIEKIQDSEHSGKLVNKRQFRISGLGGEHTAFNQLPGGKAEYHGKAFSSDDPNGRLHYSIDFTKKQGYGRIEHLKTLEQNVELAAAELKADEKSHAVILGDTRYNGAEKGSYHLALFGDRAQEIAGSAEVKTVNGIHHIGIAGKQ
# T2: Neisseria meningitidis factor H binding protein variant 3.28 (Neisseria meningitidis, fHbp variant …, strain)
# T2 construct: also called fHbp v3.28; fHbp variant 3.28
# T2 chain: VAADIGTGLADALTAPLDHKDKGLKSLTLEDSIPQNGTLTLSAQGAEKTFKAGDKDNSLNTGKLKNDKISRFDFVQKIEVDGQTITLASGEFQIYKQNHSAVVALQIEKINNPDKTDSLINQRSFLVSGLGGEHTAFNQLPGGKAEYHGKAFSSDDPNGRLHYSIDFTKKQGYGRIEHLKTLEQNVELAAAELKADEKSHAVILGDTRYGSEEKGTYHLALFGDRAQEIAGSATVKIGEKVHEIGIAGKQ
# T3: fHbp m000019 (Neisseria meningitidis, fHbp v1.1 …, point mutant)
# T3 construct: also called Round 1 best mutant
# T3 chain: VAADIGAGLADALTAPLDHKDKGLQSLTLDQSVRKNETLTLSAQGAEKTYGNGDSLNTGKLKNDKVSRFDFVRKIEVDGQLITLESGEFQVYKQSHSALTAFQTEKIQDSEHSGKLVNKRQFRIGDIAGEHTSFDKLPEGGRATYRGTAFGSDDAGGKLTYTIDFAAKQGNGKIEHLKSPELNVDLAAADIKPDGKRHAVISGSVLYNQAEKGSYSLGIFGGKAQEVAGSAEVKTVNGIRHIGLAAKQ
# B1: human mAb 4B3 (antibody, V domains shown)
# VH: QVQLVQSGGGLVKPGGSLRLSCAASGFPFSSYYMSWIRQAPGKGLEWVSDINNSGNVKEYADFVKGRLTISRDNVKNSMYLHMNSLRVEDTAVYYCARNRGRFDVWGQGTLVTVSA
# VL: EIVMTQSPGTLSLSPGETATLSCRASQMISSPFLAWYQQRRGQAPRLLIYGASTRATDTPDRFRGSGSGTDFILTISRLEPEDFAVYYCQYYDDSPFTFGQGTKLEIK
# notes: source: Expi293, transient transfection, purified (MabSelect SuRe, SEC)
# B2: human mAb 1E6 (antibody, V domains shown)
# VH: EVQLVQSGAEVKKPGSSVKVSCKASGGTVIDYPITWVRQAPGQGLEWVGGFVPLFRTSNYGQKFQGRVTITADKSTSTASMELNSLTSEDTAIYYCARGDTAMGPFDYWGQGTLVTVSS
# VL: SYVLTQPPSLSVAPGKTATLTCGGNNIAGKTVHWYQQRPGQAPVLVISYDSDRPSGIPERFSGSNSANTATLTISRVEAGDEADYYCQVWDRNSDHWVFGGGTKLTVL
# notes: as for B1
# Key:
# Experiment in all cases: BLI
# Settings in all cases: both partners purified
# [1] = target: T1, fHbp m002416
# [2] = target: T2, Neisseria meningitidis factor H binding …
# [3] = target: T4, Neisseria meningitidis factor H binding protein variant 1.1 (Neisseria meningitidis, UniProt Q9JXV4)
# T4 construct: also called fHbp v1.1; fHbp variant 1.1
# [4] = target: T3, fHbp m000019
binder,measurement,setting,value
B1,Kd,[1],3.8 nM
same,Kd,[2],5 to 6 nM
same,Kd,[3],1 to 5 nM
same,Kd,[4],2.4 nM
B2,Kd,[1],0.32 nM
same,Kd,[2],2 to 4 nM
same,Kd,[3],3 to 10 nM
same,Kd,[4],0.8 nM

# — paper PMC12319226 (Frontiers in Bioinformatics, 2025)
